Test results as given in patent publication US20200164071A1 (GENSUN BIOPHARMA, published 2020).
Numbering of substitutions follows the chain as printed.

Assays:
[1] = target: T1, His tagged human PD-1 protein (human, UniProt Q15116 25-170, limits assumed); assay: bio-layer interferometry (Octet RED96), antibody on anti-human IgG capture biosensors, His tagged human PD-1 as analyte, 1:1 global fit (Example 12)
T1 construct: also called huPD-1-His; not shown: His tag
Procedure: […] was carried out using the Octet RED96 system (ForteBio Octet RED96 System) to characterize the binding kinetics of antibodies against His tagged human PD-1 protein. 20 nM of antibody was loaded onto the anti-human IgG capture biosensors. Association of analyte (His tagged human PD-1 protein) was observed by placing the biosensors in wells containing 2 or 3 fold serial dilution of analytes (72 nM being the highest concentration) for 5 mins. Dissociation was measured after transfer of the biosensors into kinetic buffer alone and monitoring of the interferometry signal for 10 minutes. The observed on and off rates (Ka and Kd) were fit using a 1:1 binding global fit model comprising at least 5 concentrations tested, and the equilibrium binding constant KD was then calculated.

[2] = target: T2, cyno PD-1 on CHO-K1 cells (cyno); assay: flow cytometry blocking assay of Example 11, PD-L1 on cyno PD-1 CHO-K1 cells; cyno taken from the legend paragraph 42 ('cyno-hu'), while Example 11 speaks of human PD-1 and human PD-L1 for this figure
T2 construct: whole, on cells; also called cyno hu PD-1; Cyno PD-1 transfected CHO-K1 cells
Procedure: (§1) Human or Cyno PD-1 transfected CHO-K1 cells were washed with FACS buffer (0.5% BSA 2 mM EDTA in PBS) and re-suspended at a concentration of 10⁶ cells/ml. […] The cells were then washed and re-suspended in 30 μl 7 AAD solution; 35 μl 10% neutral buffered formalin solution was then added and incubated for 15 mins. before analysis using the iQue intellicyt system.

[3] = target: T3, human PD-1 on CHO-K1 cells (human, UniProt Q15116 25-288); assay: flow cytometry blocking assay: FITC human PD-L1-Fc on human PD-1 CHO-K1 cells (Example 11; the legend paragraph 42 calls it binding to hu PD-L1)
T3 construct: also called Human PD-1 transfected CHO-K1 cells
T3 sequence (Q15116 25-288): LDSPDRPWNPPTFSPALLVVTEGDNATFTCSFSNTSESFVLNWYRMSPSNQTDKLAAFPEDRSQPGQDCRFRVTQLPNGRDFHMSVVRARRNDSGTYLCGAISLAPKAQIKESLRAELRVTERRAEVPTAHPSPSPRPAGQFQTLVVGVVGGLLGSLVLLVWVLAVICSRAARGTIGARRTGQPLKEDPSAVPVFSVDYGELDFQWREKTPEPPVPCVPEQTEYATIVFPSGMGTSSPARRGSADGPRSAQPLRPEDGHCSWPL
Procedure: as §1

[4] = target: T3, human PD-1 on CHO-K1 cells; assay: flow cytometry blocking assay: FITC human PD-L1-Fc on human PD-1 CHO-K1 cells (Example 11)
Procedure: as §1

[5] = target: T4, human TIGIT on CHO-K1 cells (human, UniProt Q495A1 23-244); assay: flow cytometry blocking assay: PVR (hPVR-mIg, m14, by Examples 4 and 6) on human TIGIT CHO-K1 cells (Example 16); title: Blocking PVR binding to TIGIT
T4 construct: also called hu TIGIT; TIGIT+CHO-K1 cells
T4 sequence: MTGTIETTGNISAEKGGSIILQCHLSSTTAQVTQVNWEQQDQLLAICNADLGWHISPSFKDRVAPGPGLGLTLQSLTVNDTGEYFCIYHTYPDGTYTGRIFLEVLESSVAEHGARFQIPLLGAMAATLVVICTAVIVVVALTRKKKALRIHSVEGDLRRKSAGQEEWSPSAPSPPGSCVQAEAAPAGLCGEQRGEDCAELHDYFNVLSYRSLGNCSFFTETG

[6] = target: T3, human PD-1 on CHO-K1 cells; assay: flow cytometry blocking assay: FITC human PD-L1-Fc on human PD-1 CHO-K1 cells (Examples 11 and 16); title: Blocking PD-L1 binding to PD-1
Procedure: as §1

[7] = target: T4, human TIGIT on CHO-K1 cells; assay: flow cytometry competition with biotinylated hPVR-mIg on CHO-K1 cells expressing human TIGIT
Procedure: The cells were washed 2 times before staining with PE streptavidin (BioLegend) for 20 min at 4 C. The cells were then washed, resuspended in 30 μl 7 AAD solution, and 35 μl of 10% neutral buffered formalin solution was added. The cells were then incubated for 15 min. Flow cytometry was performed and IC50 was calculated using iQue intellicyt system.

T1 sequence (Q15116 25-170 limits assumed): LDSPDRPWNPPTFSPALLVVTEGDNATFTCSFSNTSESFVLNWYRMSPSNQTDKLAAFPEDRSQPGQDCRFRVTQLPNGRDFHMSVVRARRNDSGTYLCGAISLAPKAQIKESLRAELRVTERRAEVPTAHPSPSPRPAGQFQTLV

B1: PD-02 mab (antibody, V domains shown)
VH: QVQLVQSGAEVKKPGASVKVSCKASDYTFTNSYLYWLRQAPGQGLEWMGGINPSNGGTNFNEKFKTRTTSTRDTSISTAYMELSRLRSDDTVVYYCTRRDYNYDGGFDSWGQGTLVTVSS
VL: DIQMTQSPSSLSASVGDRVTFTCRASSTLYSNYLHWYQQKPGKAPKLLIYRASFLASGVPSRFSGSGSGTDFTLTISSLQPEDFATYYCQQGSSIPLTFGGGTKVEIK
Kd [1]: 3.7 nM | koff [1]: 0.000395 s⁻¹ | kon [1]: 106000 M⁻¹ s⁻¹ | IC50 [2]: 1.72 nM | IC50 [3]: 0.54 nM | IC50 [4]: 2.05 nM

B2: PD-04 (antibody, V domains shown)
VH: B1 VH with L34I, L37V, T68V, T97A
VL: B1 VL with T28S
notes: also called anti-PD-1 mab PD-04
IC50 [2]: 2.15 nM | IC50 [3]: 0.82 nM

B3: PD-06 (antibody, V domains shown)
VH: QVQLVQSGAEVKKPGASVKVSCKASGYTFTSYYIHWVRQAPGQRLEWMGWIFPGSGNSKYNENFKGRVTITRDTSASTAYMELSSLRSEDTAVYFCASETYDYGDYWGQGTLVTVSS
VL: DIQMTQSPSSLSASVGDRVTITCKASQNVGTNVAWYQQKPGKAPKSLIYSASYRYSGVPSRFSGSGSGTDFTLTISSLQPEDFATYFCQQYYSYPYTFGQGTKLEIK
notes: also called anti-PD-1 mab PD-06
IC50 [2]: 2.14 nM | IC50 [3]: 0.65 nM

B4: TP-M8T10P1 (TP-83) (bispecific antibody)
heavy: QVQLVQSGAEVKKPGASVKVSCKASGYTFTSYYMHWVRQAPGQGLEWMGIINPSGGRTSYAQMFQGRVTMTRDTSTSTVYMELSSLRSEDTAVYYCARDREEQWPVGGFDYWGQGTLVTVSS
light: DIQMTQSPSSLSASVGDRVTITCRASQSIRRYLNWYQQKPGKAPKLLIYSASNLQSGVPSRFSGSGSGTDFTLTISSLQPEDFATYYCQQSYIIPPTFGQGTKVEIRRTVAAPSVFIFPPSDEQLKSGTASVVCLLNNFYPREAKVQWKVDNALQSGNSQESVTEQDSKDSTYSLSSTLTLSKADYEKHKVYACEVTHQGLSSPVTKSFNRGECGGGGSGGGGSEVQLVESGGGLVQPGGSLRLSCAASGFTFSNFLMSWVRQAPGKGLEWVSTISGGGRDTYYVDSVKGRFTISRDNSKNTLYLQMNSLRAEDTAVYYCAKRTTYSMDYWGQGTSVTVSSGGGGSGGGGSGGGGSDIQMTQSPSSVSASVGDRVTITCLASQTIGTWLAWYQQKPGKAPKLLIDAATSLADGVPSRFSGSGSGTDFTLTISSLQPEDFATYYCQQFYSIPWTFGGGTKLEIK
notes: Anti-TIGIT x anti-PD-1; The tie is in embodiment wording ('about 80% to about 100% homologous to')
IC50 [5]: 0.21 nM | IC50 [6]: 1.8 nM

B5: TP-M9T10P1 (TP-93) (bispecific antibody, human IgG4 S228P, kappa)
heavy: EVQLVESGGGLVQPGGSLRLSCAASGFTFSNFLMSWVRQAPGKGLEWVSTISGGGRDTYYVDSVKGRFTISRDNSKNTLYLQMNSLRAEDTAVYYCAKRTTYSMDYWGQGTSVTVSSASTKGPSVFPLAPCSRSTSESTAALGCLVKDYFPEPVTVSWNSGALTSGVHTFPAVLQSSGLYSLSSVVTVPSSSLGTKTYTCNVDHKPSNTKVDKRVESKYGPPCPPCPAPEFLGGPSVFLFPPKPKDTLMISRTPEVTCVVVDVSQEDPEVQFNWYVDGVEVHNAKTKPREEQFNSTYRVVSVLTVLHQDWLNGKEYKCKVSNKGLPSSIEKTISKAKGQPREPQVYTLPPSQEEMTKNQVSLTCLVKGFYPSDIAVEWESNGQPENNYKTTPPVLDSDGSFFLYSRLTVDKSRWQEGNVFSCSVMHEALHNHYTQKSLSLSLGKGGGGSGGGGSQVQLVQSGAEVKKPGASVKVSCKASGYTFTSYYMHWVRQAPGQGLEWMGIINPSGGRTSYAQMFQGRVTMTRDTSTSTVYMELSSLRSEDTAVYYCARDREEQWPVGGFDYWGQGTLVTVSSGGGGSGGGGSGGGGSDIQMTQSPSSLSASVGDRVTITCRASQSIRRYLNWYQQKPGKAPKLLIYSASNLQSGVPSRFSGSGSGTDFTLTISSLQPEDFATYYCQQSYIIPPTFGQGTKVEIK
light: DIQMTQSPSSVSASVGDRVTITCLASQTIGTWLAWYQQKPGKAPKLLIDAATSLADGVPSRFSGSGSGTDFTLTISSLQPEDFATYYCQQFYSIPWTFGGGTKLEIKRTVAAPSVFIFPPSDEQLKSGTASVVCLLNNFYPREAKVQWKVDNALQSGNSQESVTEQDSKDSTYSLSSTLTLSKADYEKHKVYACEVTHQGLSSPVTKSFNRGEC
notes: as for B4
IC50 [5]: 0.4 nM | IC50 [6]: 1.4 nM

B6: TP-M10T8P5 (TP-92) (bispecific antibody, human IgG4 S228P)
heavy: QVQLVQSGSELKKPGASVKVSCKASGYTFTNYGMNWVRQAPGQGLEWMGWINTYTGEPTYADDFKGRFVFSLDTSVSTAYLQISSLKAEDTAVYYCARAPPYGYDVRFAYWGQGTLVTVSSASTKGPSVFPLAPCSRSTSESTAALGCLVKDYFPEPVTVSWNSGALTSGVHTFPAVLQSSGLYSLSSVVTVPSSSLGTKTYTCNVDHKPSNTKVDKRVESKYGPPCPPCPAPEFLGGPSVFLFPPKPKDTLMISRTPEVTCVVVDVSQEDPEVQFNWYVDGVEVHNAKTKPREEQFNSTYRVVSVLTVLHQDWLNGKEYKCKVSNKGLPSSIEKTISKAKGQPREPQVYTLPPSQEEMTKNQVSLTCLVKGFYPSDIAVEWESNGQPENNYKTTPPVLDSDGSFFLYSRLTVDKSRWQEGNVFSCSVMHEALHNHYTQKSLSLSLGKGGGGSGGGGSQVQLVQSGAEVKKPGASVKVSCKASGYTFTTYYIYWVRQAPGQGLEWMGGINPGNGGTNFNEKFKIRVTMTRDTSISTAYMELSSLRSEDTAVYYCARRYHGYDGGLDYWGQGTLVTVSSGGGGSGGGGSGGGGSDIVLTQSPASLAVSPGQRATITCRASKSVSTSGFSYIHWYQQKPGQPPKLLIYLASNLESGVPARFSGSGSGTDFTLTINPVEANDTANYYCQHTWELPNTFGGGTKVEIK
light: DVVMTQSPLSLPVTLGQPASISCRSSQSIVHSNGNTYLEWFQQRPGQSPRVLIYKVSDRFSGVPDRFSGSGSGTDFTLKISRVEAEDVGVYYCFQGSHVPWTFGRGTKLEIK
notes: as for B4
IC50 [5]: 0.4 nM

B7: T-05 (antibody, V domains shown)
VH: EVQLKQSGAEVKKPGATVKISCKVSGYTFTDQAIHWVQQAPGKGLEWMGYIYPRDGSTKYNETFKGRVTITADTSTDTAYMELSSLRSEDTAVYFCARGMLRWFAYWGQGTLVTVSS
VL: DIQMTQSPSSLSASVGDRVTITCKASQDVSTAVAWYQQKPGKAPKLLIYSASYRYTGVPSRFSGSGSGTDFTLTISSLQPEDFATYYCQQHYSTPLTFGAGTKLELK
notes: Anti-human TIGIT monoclonal antibody from mouse hybridoma; also called anti-hu TIGIT mab T-05
IC50 [7]: 0.2 to 0.46 nM

B8: T-06 (antibody, V domains shown)
VH: QVQLQESGPGLVKPSQTLSLTCTVSGGSVSSDYAWNWIRQPPGKGLEWIGYITYSGSTSYNPSLKSRVTISVDTSKNQFSLKLSSVTAADTAVYYCARRQVGLGFAYWGQGTLVTVSA
VL: B7 VL with R54H, L96W, A100G, L106I
notes: Anti-human TIGIT monoclonal antibody from mouse hybridoma; also called anti-hu TIGIT mab T-06
IC50 [7]: 0.84 nM

B9: T-07 (antibody, V domains shown)
VH: EVQLQESGPGLVKPSDTLSLTCAVSGYSITSDSAWNWIRQPPGKGLEWIGYITYSGSTNYNPSLRSRVTMSVDTSKNQFSLKLSSVTAVDTAVYYCTRRQVGLGFAYWGQGTLVTVSA
VL: B7 VL with Y55F, V58A, A84G, T85I, Q90H, L96W, A100G, L106F
notes: Anti-human TIGIT monoclonal antibody from mouse hybridoma; also called anti-hu TIGIT mab T-07
IC50 [7]: 0.5 nM

B10: T-09 (antibody, V domains shown)
VH: QVTLKESGPTLVKPTQTLTLTCTFSGFSLSTFAMGVGWIRQPPGKALEWLAHIWWDDDKYYNPALKSRLTITKDTSKNQVVLTMTNMDPVDTATYYCARMDYSYFAWFAYWGQGTLVTVSS
VL: QAVVTQEPSLTVSPGGTVTLTCRSSTGAVTTSNYANWVQQKPGQLFRGLIGGTNNRAPWVPARFSGSLIGDKAALTLSGVQPEDEAEYFCALWYSNHWVFGGGTKLTVL
notes: Anti-human TIGIT monoclonal antibody from mouse hybridoma; also called anti-hu TIGIT mab T-09
IC50 [7]: 0.36 to 0.42 nM

B11: T-02 (antibody, V domains shown)
VH: B8 VH with Q3K, S25T, G27Y, V29I, S30T, S57G, Y95S, V101I, A106T
VL: DIQMTQSPSSLSASVGDRVTIPCKASQDLSTAVAWYQQKPGKAPKLLIYSSSYRYTGVPSRFSGSGSGTDFTLTISSLQPEDFATYYCQQSYSTPQQHYSTPWTFGEGTKLEIK
notes: Anti-human TIGIT monoclonal antibody from mouse hybridoma; also called anti-hu TIGIT mab T-02
IC50 [7]: 0.35 to 0.71 nM

B12: T-03 (antibody, V domains shown)
VH: B7 VH with K5V, Q32H, A33T, I51F, T63K, F95Y, R98T, Y106D, V113I, S117V
VL: B7 VL with A32T
notes: Anti-human TIGIT monoclonal antibody from mouse hybridoma; also called anti-hu TIGIT mab T-03
IC50 [7]: 0.26 to 0.52 nM
